Experiment [1] deals with T1, CGRP1 receptor (CRLR/RAMP1 complex) of human neuroblastoma SK-N-MC cells (human, UniProt Q16602 23-461; O60894 27-148).
T1 construct: whole, on cells
Put plainly: 125I-hαCGRP competition, SK-N-MC membranes.

Experiment [2] deals with T2, rat ortholog of the CGRP1 receptor (rat, UniProt Q63118 24-464; Q9JJ74 27-148, limits assumed). As to the kind of experiment: cell-based or functional assay.
Experiment [3] deals with T1, CGRP1 receptor (CRLR/RAMP1 complex) of …. Put plainly: cell-based or functional assay.
The target in experiment [4] is T2, rat ortholog of the CGRP1 receptor. As to the kind of experiment: cell-based or functional assay. This is another data set of the same source.

T1 sequence (Q16602 23-461, chain 1 of 2): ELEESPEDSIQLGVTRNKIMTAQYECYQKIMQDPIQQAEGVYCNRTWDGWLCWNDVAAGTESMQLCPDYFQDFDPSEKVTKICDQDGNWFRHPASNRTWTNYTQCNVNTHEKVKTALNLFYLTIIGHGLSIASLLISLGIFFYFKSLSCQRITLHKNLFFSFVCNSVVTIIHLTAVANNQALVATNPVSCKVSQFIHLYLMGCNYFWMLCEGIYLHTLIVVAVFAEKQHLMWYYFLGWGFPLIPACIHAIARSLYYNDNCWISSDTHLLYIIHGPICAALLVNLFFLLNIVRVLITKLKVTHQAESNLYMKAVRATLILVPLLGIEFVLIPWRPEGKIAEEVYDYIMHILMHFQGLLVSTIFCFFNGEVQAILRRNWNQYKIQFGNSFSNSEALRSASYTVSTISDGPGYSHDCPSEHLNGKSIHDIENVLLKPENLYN
T1 sequence (O60894 27-148, chain 2 of 2): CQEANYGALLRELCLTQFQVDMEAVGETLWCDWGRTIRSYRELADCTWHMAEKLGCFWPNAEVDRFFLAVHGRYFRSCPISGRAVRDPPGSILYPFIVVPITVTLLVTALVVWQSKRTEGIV
T2 sequence (Q63118 24-464 limits assumed, chain 1 of 2): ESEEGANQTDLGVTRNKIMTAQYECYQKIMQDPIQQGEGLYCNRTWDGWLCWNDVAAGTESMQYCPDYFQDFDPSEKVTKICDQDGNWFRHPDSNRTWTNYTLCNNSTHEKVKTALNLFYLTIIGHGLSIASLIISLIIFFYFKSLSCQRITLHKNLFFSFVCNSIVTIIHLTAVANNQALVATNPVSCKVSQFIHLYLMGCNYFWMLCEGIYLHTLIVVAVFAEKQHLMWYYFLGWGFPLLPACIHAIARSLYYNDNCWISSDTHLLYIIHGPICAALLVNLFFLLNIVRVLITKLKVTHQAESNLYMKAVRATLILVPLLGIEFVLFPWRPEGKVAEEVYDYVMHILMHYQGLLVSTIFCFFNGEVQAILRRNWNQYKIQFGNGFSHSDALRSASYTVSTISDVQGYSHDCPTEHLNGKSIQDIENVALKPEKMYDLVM
T2 sequence (Q9JJ74 27-148 limits assumed, chain 2 of 2): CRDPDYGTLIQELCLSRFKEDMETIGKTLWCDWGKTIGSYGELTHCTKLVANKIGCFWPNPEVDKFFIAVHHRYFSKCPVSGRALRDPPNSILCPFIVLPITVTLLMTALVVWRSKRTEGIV

In general, Ki refers to a measure of affinity in units of concentration, obtained from inhibition or displacement. One may read the IC50 as the concentration at which inhibition is half-maximal. A low value points to higher potency. Molecule WVTHXLAGLLSXSGGVVRKNFVPTDVGPFAF (Ac-WVTH[Cit]LAGLLS[Cit]SGG VVRK^(20 kDa MeO-PEG)NFVPTDVGPFAF-amide) [SEQ ID NO 791] yielded a Ki in experiment [1] of 1.83 nM. The “in vitro IC50 (rat ortholog; nM)” value in experiment [2] worked out at 131 nM. Moreover, the half-maximal inhibitory concentration (IC50) in experiment [3] was determined as 3.74 nM. For the same molecule, the “fold loss of potency against SEQ ID NO:31” value in experiment [4] is about 9 fold.

In experiment [1], WVTHXLAGLLSXSGGVVXKNFVPTDVGPXAF (Ac-WVTH[Cit]LAGLLS[Cit]SGGVV[hArg]K(20 KPEGald)NFVPTDVGP[1-Nal]AF-NH2) [SEQ ID NO 173] returned a Ki of 0.84 nM. Also, the “in vitro IC50 (rat ortholog; nM)” value in experiment [2] turned out to be 49.5 nM.

Take WVTHXLAGLLSXSGGVVXKNFVPTDVGPFAF (Ac-WVTH[Cit]LAGLLS[Cit]SGGVV[hArg]KNFVPTDVGPFAF-NH2) [SEQ ID NO 739]: the Ki in experiment [1] came to 0.53 nM. In addition, in experiment [2], the “in vitro IC50 (rat ortholog; nM)” value was found to be 8.9 nM.

The values above are taken from US20080020978A1 (Amgen, published 2008).
